The test concerns the target integrin alpha V beta 5 (human) (UniProt P06756). As to the kind of experiment: cell-based or functional assay.
Chain of UniProt P06756 (P06756 31-1048, chain 1 of 2): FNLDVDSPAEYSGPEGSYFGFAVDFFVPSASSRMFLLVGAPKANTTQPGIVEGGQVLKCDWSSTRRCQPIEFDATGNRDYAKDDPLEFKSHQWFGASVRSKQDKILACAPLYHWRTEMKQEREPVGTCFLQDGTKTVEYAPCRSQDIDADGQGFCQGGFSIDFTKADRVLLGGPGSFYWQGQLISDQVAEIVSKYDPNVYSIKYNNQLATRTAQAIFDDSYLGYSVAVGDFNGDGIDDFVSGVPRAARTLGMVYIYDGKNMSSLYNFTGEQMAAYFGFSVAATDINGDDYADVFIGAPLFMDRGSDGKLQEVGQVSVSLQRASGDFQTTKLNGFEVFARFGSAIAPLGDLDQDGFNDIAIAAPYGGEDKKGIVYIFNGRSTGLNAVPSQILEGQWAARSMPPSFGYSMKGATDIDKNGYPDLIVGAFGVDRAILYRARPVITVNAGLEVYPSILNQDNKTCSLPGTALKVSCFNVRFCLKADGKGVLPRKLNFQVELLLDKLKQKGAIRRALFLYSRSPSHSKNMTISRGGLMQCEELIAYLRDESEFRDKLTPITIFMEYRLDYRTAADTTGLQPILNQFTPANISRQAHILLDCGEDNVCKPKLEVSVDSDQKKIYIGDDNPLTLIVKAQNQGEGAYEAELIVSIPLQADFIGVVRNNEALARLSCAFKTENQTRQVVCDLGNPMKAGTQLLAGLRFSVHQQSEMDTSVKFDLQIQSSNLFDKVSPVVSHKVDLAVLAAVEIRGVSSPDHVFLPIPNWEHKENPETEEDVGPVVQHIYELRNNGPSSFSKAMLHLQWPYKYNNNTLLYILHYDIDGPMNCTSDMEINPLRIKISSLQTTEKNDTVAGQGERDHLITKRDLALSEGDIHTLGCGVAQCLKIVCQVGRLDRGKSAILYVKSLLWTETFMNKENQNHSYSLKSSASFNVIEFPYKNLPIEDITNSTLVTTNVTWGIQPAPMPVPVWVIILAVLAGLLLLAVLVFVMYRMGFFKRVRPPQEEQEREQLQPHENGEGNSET
Chain of UniProt P06756 (P18084 24-799, chain 2 of 2, further chain): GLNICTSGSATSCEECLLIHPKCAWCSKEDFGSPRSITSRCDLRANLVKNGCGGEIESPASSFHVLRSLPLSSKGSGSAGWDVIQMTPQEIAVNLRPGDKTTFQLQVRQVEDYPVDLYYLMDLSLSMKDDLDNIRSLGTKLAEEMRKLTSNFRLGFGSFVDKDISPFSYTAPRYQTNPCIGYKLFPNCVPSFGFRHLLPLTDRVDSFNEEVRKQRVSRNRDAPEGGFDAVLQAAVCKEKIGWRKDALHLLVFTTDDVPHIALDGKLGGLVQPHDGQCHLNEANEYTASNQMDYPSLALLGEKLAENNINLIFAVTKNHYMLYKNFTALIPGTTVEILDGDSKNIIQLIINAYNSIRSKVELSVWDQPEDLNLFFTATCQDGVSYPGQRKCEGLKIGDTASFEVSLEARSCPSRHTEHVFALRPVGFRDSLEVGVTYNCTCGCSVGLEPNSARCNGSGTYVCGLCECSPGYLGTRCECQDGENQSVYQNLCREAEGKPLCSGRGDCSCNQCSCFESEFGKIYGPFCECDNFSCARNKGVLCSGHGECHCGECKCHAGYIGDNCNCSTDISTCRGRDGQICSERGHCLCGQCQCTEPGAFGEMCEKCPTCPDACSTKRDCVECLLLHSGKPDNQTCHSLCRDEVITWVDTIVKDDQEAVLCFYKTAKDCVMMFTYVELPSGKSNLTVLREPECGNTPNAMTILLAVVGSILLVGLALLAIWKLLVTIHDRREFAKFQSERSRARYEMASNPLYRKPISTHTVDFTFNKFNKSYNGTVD

As to “periostin (from UniProt Q15063 22-779) (ligand)”, the ability to induce the migration of neural stem cells (Boyden chamber assay, HB1.F3 cells, against cells not treated with periostin) amounted to 100%.

The values are drawn from patent US20120156175A1.
